Measured values published in paper PMC10745820, “Bode Phase Angle Signaling of a TB Disease Biomarker”.

Target: interferon gamma (IFN-γ) (UniProt P01579 24-161)
Assay: electrochemical impedance aptasensor (Bode phase angle); spiked pleural fluid, IFN-γ 0.2-2.2 pg/mL; linear 0.2-1.2 pg/mL; LOD 0.09 (abstract) or 0.11 pg/mL; no Kd; aptamer-free control sensor only slight change; Aptamer folded in 0.1 M phosphate buffer, 10 mM KCl, 2 mM MgCl2 (90 °C 10 min, 4 °C 5 min, RT 10 min); IFN-γ in spiked pleural fluid; EIS in phosphate buffer/PBS pH 7.4; binding temperature not stated
Conditions: chain copies: 2

Sequence of interferon gamma (IFN-γ) (P01579 24-161): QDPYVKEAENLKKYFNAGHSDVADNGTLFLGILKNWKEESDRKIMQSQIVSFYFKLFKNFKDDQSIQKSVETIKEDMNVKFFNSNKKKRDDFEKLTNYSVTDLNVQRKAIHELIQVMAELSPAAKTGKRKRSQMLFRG

CGGCGAAGGCACGTGTGGGGTGGTCGCGT (ssDNA, 5' thiol (5ThioMC6-D, printed as 5thiolMCS-D)) [29-mer anti-IFN-γ aptamer]: binds.
